Source: publication PMC4646087 (Journal of molecular biology, 2015)
Where two headings read alike, the source gives them in different places. Blank lines part the entries; values can stand above or below the molecule they belong to.

Key:
[1] = molecular target: T1, SR-TOG3 construct of human CLASP2 (human); test: ITC
T1 sequence (O75122 whole entry, looked up): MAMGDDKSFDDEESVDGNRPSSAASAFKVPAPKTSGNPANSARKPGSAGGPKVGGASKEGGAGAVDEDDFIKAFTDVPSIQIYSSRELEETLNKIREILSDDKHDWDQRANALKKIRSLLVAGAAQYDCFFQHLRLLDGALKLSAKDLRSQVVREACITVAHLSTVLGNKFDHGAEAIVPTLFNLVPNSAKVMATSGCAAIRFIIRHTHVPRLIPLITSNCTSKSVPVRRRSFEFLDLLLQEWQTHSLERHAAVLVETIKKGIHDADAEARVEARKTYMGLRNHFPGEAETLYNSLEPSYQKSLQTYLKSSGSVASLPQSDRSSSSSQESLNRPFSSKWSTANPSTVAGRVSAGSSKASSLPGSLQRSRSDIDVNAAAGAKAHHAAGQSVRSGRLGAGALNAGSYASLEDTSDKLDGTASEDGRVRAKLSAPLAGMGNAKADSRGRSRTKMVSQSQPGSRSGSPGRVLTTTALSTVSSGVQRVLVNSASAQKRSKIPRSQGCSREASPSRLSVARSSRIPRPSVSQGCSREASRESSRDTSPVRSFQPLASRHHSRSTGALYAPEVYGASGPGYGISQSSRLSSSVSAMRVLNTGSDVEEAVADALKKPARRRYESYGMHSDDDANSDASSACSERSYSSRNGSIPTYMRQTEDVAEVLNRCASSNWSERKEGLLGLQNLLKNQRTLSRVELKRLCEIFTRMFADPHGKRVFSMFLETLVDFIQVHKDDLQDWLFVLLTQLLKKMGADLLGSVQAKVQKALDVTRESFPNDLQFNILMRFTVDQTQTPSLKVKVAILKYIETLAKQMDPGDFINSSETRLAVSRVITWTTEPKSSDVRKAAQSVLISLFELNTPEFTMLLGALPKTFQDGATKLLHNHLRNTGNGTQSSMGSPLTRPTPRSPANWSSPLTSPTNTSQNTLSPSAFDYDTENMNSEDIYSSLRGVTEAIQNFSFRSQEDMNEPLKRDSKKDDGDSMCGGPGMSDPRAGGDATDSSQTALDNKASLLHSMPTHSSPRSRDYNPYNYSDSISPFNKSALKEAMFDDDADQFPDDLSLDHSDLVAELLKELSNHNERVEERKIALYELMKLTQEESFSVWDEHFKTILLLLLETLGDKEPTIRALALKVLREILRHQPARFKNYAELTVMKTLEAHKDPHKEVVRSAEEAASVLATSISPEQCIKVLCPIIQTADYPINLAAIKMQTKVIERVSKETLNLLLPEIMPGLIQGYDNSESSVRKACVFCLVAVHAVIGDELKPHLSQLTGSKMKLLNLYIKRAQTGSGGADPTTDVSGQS

[2] = molecular target: T2, TOG2-SR construct of human CLASP2 (human); test: ITC
T2 sequence (O75122 whole entry, looked up): T1 sequence (O75122 whole entry, looked up)

[3] = molecular target: αβ-tubulin heterodimer isolated from porcine brain (porcine) (UniProt P02550); test: co-sedimentation
[4] = molecular target: T3, SR region of human CLASP2 (residues 311-648) (human, UniProt O75122 311-648); test: ITC
T3 sequence (looked up): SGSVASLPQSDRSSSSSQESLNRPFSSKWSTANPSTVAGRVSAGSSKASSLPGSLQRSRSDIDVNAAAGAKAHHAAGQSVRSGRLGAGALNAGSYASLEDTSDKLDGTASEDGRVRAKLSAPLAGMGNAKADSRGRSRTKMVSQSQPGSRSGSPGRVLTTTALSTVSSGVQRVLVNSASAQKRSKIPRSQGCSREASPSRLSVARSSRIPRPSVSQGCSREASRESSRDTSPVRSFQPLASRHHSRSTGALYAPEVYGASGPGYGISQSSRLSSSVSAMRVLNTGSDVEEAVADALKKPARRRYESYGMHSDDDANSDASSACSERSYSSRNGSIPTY

[5] = molecular target: T3, SR region of human CLASP2 (residues …); test: ITC; remark: listed apart in the source

Kd [1]: 1200 nM
stoichiometry N (CLASP2 versus EB1 dimer) [1]: 2
Kd [2]: 2000 nM
stoichiometry N (CLASP2 versus EB1 dimer) [2]: 2.2
Molecule: EB1 (dimeric) (from UniProt Q15691 1-268) (natural protein)

fold affinity relative to hC2-TOG2 [3]: 3 fold
B1: human CLASP2 TOG3 domain (hC2-TOG3; residues 649-881) (domain or fragment)
chain: MRQTEDVAEVLNRCASSNWSERKEGLLGLQNLLKNQRTLSRVELKRLCEIFTRMFADPHGKRVFSMFLETLVDFIQVHKDDLQDWLFVLLTQLLKKMGADLLGSVQAKVQKALDVTRESFPNDLQFNILMRFTVDQTQTPSLKVKVAILKYIETLAKQMDPGDFINSSETRLAVSRVITWTTEPKSSDVRKAAQSVLISLFELNTPEFTMLLGALPKTFQDGATKLLHNHLRN

Kd [4]: 3000 ± 400 nM
stoichiometry N [4]: 2 CLASP2 versus EB1 dimer
Kd [5]: 2000 ± 400 nM
stoichiometry N [5]: 2 CLASP2 versus EB1 dimer
B2: EB1 (dimeric) (natural protein, UniProt Q15691 1-268, looked up)
chain: MAVNVYSTSVTSDNLSRHDMLAWINESLQLNLTKIEQLCSGAAYCQFMDMLFPGSIALKKVKFQAKLEHEYIQNFKILQAGFKRMGVDKIIPVDKLVKGKFQDNFEFVQWFKKFFDANYDGKDYDPVAARQGQETAVAPSLVAPALNKPKKPLTSSSAAPQRPISTQRTAAAPKAGPGVVRKNPGVGNGDDEAAELMQQVNVLKLTVEDLEKERDFYFGKLRNIELICQENEGENDPVLQRIVDILYATDEGFVIPDEGGPQEEQEEY
